{"source": "the supplement of paper PMC10567573", "parents": {"B1": {"name": "NFE2L1 (parent)", "chain": "TLDGYGIHPKSIDLDNYFTARRLL"}}, "data": [{"variants_of": "B1", "experiment": "protein stability index of a GFP-peptide fusion (GPS, HEK-293T) (PSI 1-6); higher = more stable", "details": "c terminus: a fixed tail appended", "values": [{"variant": "TLDGYGIHPKSIDLDNYFTALRLL", "protein stability index": 1.9}, {"variant": "TLDGYGIHPKSIDLDNYFTARILL", "protein stability index": 3.54}, {"variant": "TLDGYGIHPKSIDLDNYFTARVLL", "protein stability index": 1.71}, {"variant": "TLDGYGIHPKSIDLDNYFTARDLL", "protein stability index": 2.05}, {"variant": "TLDGYGIHPKSIDLDNYFTARGLL", "protein stability index": 2.53}, {"variant": "TLDGYGIHPKSIDLDNYFTARELL", "protein stability index": 1.88}, {"variant": "TLDGYGIHPKSIDLDNTFTARRLL", "protein stability index": 2.24}, {"variant": "TLDGYGIHPKSIDLDNHFTARRLL", "protein stability index": 2.56}, {"variant": "ALDGYGIHPKSIDLDNYFTARRLL", "protein stability index": 2.49}, {"variant": "MLDGYGIHPKSIDLDNYFTARRLL", "protein stability index": 1.77}, {"variant": "ILDGYGIHPKSIDLDNYFTARRLL", "protein stability index": 1.36}, {"variant": "CLDGYGIHPKSIDLDNYFTARRLL", "protein stability index": 1.92}, {"variant": "GLDGYGIHPKSIDLDNYFTARRLL", "protein stability index": 1.46}, {"variant": "YLDGYGIHPKSIDLDNYFTARRLL", "protein stability index": 2.32}, {"variant": "SLDGYGIHPKSIDLDNYFTARRLL", "protein stability index": 1.82}, {"variant": "ELDGYGIHPKSIDLDNYFTARRLL", "protein stability index": 1.54}, {"variant": "QLDGYGIHPKSIDLDNYFTARRLL", "protein stability index": 1.99}, {"variant": "FLDGYGIHPKSIDLDNYFTARRLL", "protein stability index": 1.3}, {"variant": "TLAGYGIHPKSIDLDNYFTARRLL", "protein stability index": 2.61}, {"variant": "TLSGYGIHPKSIDLDNYFTARRLL", "protein stability index": 1.71}, {"variant": "TLQGYGIHPKSIDLDNYFTARRLL", "protein stability index": 1.79}, {"variant": "TLCGYGIHPKSIDLDNYFTARRLL", "protein stability index": 1.77}, {"variant": "TLDGYGIHIKSIDLDNYFTARRLL", "protein stability index": 2.39}, {"variant": "TLDGYGIHMKSIDLDNYFTARRLL", "protein stability index": 2.05}, {"variant": "TLDGYGIHRKSIDLDNYFTARRLL", "protein stability index": 2.22}, {"variant": "TLDNYGIHPKSIDLDNYFTARRLL", "protein stability index": 2.03}, {"variant": "TLDDYGIHPKSIDLDNYFTARRLL", "protein stability index": 2.57}, {"variant": "TLDAYGIHPKSIDLDNYFTARRLL", "protein stability index": 1.73}, {"variant": "TLDGYGIHPFSIDLDNYFTARRLL", "protein stability index": 1.87}, {"variant": "TLDGYGIHPVSIDLDNYFTARRLL", "protein stability index": 1.5}, {"variant": "TLDGYGIHPESIDLDNYFTARRLL", "protein stability index": 1.65}, {"variant": "TLDGYGIHPKSIDLDFYFTARRLL", "protein stability index": 2.63}, {"variant": "TLDGYGIHPKSIDLDYYFTARRLL", "protein stability index": 2.19}, {"variant": "TLDGYGIHPKSIDLDWYFTARRLL", "protein stability index": 1.96}, {"variant": "TLDGYGIHPKSIDLDIYFTARRLL", "protein stability index": 3.1}, {"variant": "TLDGYGIHPKSIDLYNYFTARRLL", "protein stability index": 1.46}, {"variant": "TLDGYGIHPKSIDLQNYFTARRLL", "protein stability index": 1.84}, {"variant": "TLDGYGIHPKSIDLVNYFTARRLL", "protein stability index": 1.72}, {"variant": "TLDGYGIHPKSIDLHNYFTARRLL", "protein stability index": 1.89}, {"variant": "TLDGYGIHPKSIQLDNYFTARRLL", "protein stability index": 2.01}, {"variant": "TLDGYGIHPKSIALDNYFTARRLL", "protein stability index": 1.84}, {"variant": "TYDGYGIHPKSIDLDNYFTARRLL", "protein stability index": 1.74}, {"variant": "TFDGYGIHPKSIDLDNYFTARRLL", "protein stability index": 1.97}, {"variant": "TGDGYGIHPKSIDLDNYFTARRLL", "protein stability index": 1.86}, {"variant": "TEDGYGIHPKSIDLDNYFTARRLL", "protein stability index": 2.05}, {"variant": "TKDGYGIHPKSIDLDNYFTARRLL", "protein stability index": 2.19}, {"variant": "TLDGYGIHPKSHDLDNYFTARRLL", "protein stability index": 2.24}, {"variant": "TLDGYGIHPKSKDLDNYFTARRLL", "protein stability index": 1.85}, {"variant": "TLDGYGIHPKSYDLDNYFTARRLL", "protein stability index": 1.99}, {"variant": "TLDGYGIHPKSIDLDNYFTARRLW", "protein stability index": 2.31}, {"variant": "TLDGYGIHPKSIDLDNYFTARRLK", "protein stability index": 2.9}, {"variant": "TLDGYGIHPKSIDLDNYFTARRLS", "protein stability index": 2.48}, {"variant": "TLDGYGIHPKSIDLDNYFTARRLT", "protein stability index": 2.42}, {"variant": "TLDGYGIHPKSIDLDNYFTARRLP", "protein stability index": 2.56}, {"variant": "TLDGYGIHPKSIDLDNYFTARRLQ", "protein stability index": 1.85}, {"variant": "TLDGYGIHPKSIDLDNYFTARRLI", "protein stability index": 1.75}, {"variant": "TLDGYGWHPKSIDLDNYFTARRLL", "protein stability index": 1.67}, {"variant": "TLDGYGVHPKSIDLDNYFTARRLL", "protein stability index": 1.68}, {"variant": "TLDGYGTHPKSIDLDNYFTARRLL", "protein stability index": 1.78}, {"variant": "TLDGYQIHPKSIDLDNYFTARRLL", "protein stability index": 1.94}, {"variant": "TLDGYHIHPKSIDLDNYFTARRLL", "protein stability index": 1.97}, {"variant": "TLDGYLIHPKSIDLDNYFTARRLL", "protein stability index": 1.59}, {"variant": "TLDGYSIHPKSIDLDNYFTARRLL", "protein stability index": 1.62}, {"variant": "TLDGYMIHPKSIDLDNYFTARRLL", "protein stability index": 1.83}, {"variant": "TLDGRGIHPKSIDLDNYFTARRLL", "protein stability index": 1.76}, {"variant": "TLDGAGIHPKSIDLDNYFTARRLL", "protein stability index": 2.67}, {"variant": "TLDGWGIHPKSIDLDNYFTARRLL", "protein stability index": 1.97}, {"variant": "TLDGYGIHPKEIDLDNYFTARRLL", "protein stability index": 2.28}, {"variant": "TLDGYGIHPKLIDLDNYFTARRLL", "protein stability index": 2}, {"variant": "TLDGYGIHPKHIDLDNYFTARRLL", "protein stability index": 1.89}, {"variant": "TLDGYGIHPKCIDLDNYFTARRLL", "protein stability index": 1.98}, {"variant": "TLDGYGIHPKGIDLDNYFTARRLL", "protein stability index": 1.91}, {"variant": "TLDGYGIHPKFIDLDNYFTARRLL", "protein stability index": 2.29}, {"variant": "TLDGYGIVPKSIDLDNYFTARRLL", "protein stability index": 2.28}, {"variant": "TLDGYGILPKSIDLDNYFTARRLL", "protein stability index": 1.67}, {"variant": "TLDGYGINPKSIDLDNYFTARRLL", "protein stability index": 1.78}, {"variant": "TLDGYGIYPKSIDLDNYFTARRLL", "protein stability index": 1.72}, {"variant": "TLDGYGIQPKSIDLDNYFTARRLL", "protein stability index": 1.79}, {"variant": "TLDGYGIHPKSIDLDNYFTTRRLL", "protein stability index": 1.49}, {"variant": "TLDGYGIHPKSIDLDNYFTIRRLL", "protein stability index": 1.77}, {"variant": "TLDGYGIHPKSIDLDNYFTERRLL", "protein stability index": 1.87}, {"variant": "TLDGYGIHPKSIDLDNYFTYRRLL", "protein stability index": 1.92}, {"variant": "TLDGYGIHPKSIDLDNYFTGRRLL", "protein stability index": 1.71}, {"variant": "TLDGYGIHPKSIDLDNYFTRRRLL", "protein stability index": 2.17}, {"variant": "TLDGYGIHPKSIDLDNYFWARRLL", "protein stability index": 2.08}, {"variant": "TLDGYGIHPKSIDLDNYFMARRLL", "protein stability index": 1.67}, {"variant": "TLDGYGIHPKSIDLDNYFGARRLL", "protein stability index": 1.89}, {"variant": "TLDGYGIHPKSIDLDNYFIARRLL", "protein stability index": 2.03}, {"variant": "TLDGYGIHPKSIDLDNYFPARRLL", "protein stability index": 2}, {"variant": "TLDGYGIHPKSIDLDNYFSARRLL", "protein stability index": 1.9}, {"variant": "TLDGYGIHPKSIDLDNYFTARRPL", "protein stability index": 2.54}, {"variant": "TLDGYGIHPKSIDLDNYFTARRWL", "protein stability index": 1.82}, {"variant": "TLDGYGIHPKSIDLDNYFTARRDL", "protein stability index": 2.4}, {"variant": "TLDGYGIHPKSIDLDNYFTARRML", "protein stability index": 2.03}]}]}
